According to patent US12178848B2, “Methods and compositions for the treatment of exocrine pancreatic insufficiency” (Board of Regents, The University of Texas System, priority 2016, dated 2024):

B1: fibroblast growth factor 21 (protein, UniProt Q9NSA1 29-209, looked up)
Fibroblast growth factor 21: HPIPDSSPLLQFGGQVRQRYLYTDDAQQTEAHLEIREDGTVGGAADQSPESLLQLKALKPGVIQILGVKTSRFLCQRPDGALYGSLHFDPEACSFRELLLEDGYNVYQSEAHGLPLHLPGNKSPHRDPAPRGPARFLPLPGLPPALPEPPGILAPQPPDVGSSDPLSMVGPSQGRSPSYAS
notes: human recombinant FGF21 from Novo Nordisk, the native form of the human FGF21

How the values were obtained:
AR42J cells = experiment: Calcium imaging with fluo4-AM; assay type: cell-based; details: for block of CCK-mediated calcium release: inhibitor 30 min prior and during imaging: 1 μM PD173074, 10 μM L-364,718, 10 μM U73122, 100 μM 2-APB; for block of calcium release elicited by FGF21: 1 μg/ml FGF21, inhibitor 30 min prior and during imaging: 1 μM PD173074, 10 μM L-364,718, 10 μM U73122, 100 μM 2-APB; for intracellular calcium release (ΔF/F0): 1 μg/ml FGF21 or 100 pM CCK
Protocol: AR42J cells were pre-loaded with 1 μM of the calcium indicator fluo4-AM (Life Technologies) for 30 minutes at 37° C. Where indicated, 1 μM PD173074 (Sigma), 10 μM L-364,718 (Tocris Bioscience), 10 μM U73122 (Tocris Bioscience) or 100 μM 2-APB (Tocris Bioscience) were added during fluo4-AM preloading and to the imaging medium (DMEM without phenol red). Cells were imaged on a BD Pathway 855 bioimager with a 10× objective. Vehicle, FGF21 (1 μg/ml) and CCK (100 pM) were delivered 10 seconds after baseline fluorescence acquisition by an automated fluid delivery mechanism and imaged for a total time of 2 minutes. Calcium release was calculated using Image J as ΔF/F0, where ΔF is the raw fluorescent signal (F) from cells minus their background fluorescence (calculated from a region where no cells and fluorescent signal was expected), and F0 was the average of the first 6 frames before the compound was added. Sample size (n) corresponds to the number of cell clusters measured with each cell cluster containing 5-20 cells.

ERK1/2 = experiment: Western blot of pancreatic phospho-ERK1/2; assay type: in vivo, mouse; details: for ERK1/2 phosphorylation in pancreas (FIG. 4F): WT mice, 1 mg/kg FGF21 or 5 μg/kg CCK (i.p.) for 15 min; for ERK1/2 phosphorylation in pancreas (FIG. 3B): mice, 1 mg/kg FGF21 or 5 mg/kg CCK for 15 min
Protocol: (§1) Pancreas was homogenized using Fastprep-24 lysing matrix bead tubes (MP Biomedicals) in 1×RIPA buffer (Cell Signaling Technology) supplemented with a cocktail of protease and phosphatase inhibitors (Roche). Protein lysate concentrations were measured using the DC Protein Assay (Biorad). Equal protein amounts were loaded and electrophoresed in a […] SDS-polyacrylamide gel (Biorad) and transferred to nitrocellulose membranes (Biorad). Membranes were blocked with 5% BSA in TBST for 1 hour. Probing of membranes with antibodies against FGF21, amylase and lipase (Santa Cruz); β-actin (Abcam); p-EIF2α, p-ERK1/2, and p-eIF4E-BP1 (Cell Signaling Technology) was performed overnight at 4° C. Membranes were then incubated with HRP-conjugated secondary antibodies (Cell Signaling Technology) against the primary antibody's host species for 1 hour. Membranes were developed using the Super Signal West Chemiluminescence Kit (Thermo) and signal was detected with an ImageQuant LAS4000 luminescent imager (General Electric). Quantification was done using Image J.

[1] = system: pancreatic protein synthesis; experiment: Pancreatic protein synthesis, 3H-phenylalanine flooding dose method; assay type: in vivo, mouse; details: mice, 1 mg/kg FGF21 or 5 mg/kg CCK for 2 hr
Protocol: Pancreatic protein synthesis was measured by the flooding dose method using ^3H-phenylalanine (Sans, et al., American journal of physiology 287, G667-675, 2004).

PLCβ3 = experiment: Western blot of pancreatic phospho-PLCβ; assay type: in vivo, mouse; details: WT mice, 5 μg/kg CCK (i.p.) for 15 min
Protocol: as §1
(§2) Activation of the CCK-A receptor leads to the phosphorylation of the b isoform of PLC, calcium release, and subsequent secretion. In contrast, FGF receptors activate the γ isoform. To explore whether FGF21 and CCK have different activation profiles for the PLC isoforms, we treated WT mice with vehicle, FGF21, or CCK for 15 min. […]

eIF4E-BP1 = experiment: Western blot of pancreatic phospho-eIF4E-BP1; assay type: in vivo, mouse; details: mice, 1 mg/kg FGF21 or CCK for 15 min
Protocol: as §1

ad-lib fed WT mice = experiment: FGF21 protein levels in pancreatic juice and plasma after CCK treatment; assay type: in vivo, mouse; details: 15 min CCK treatment vs basal
Description: (§3) Fgf21-knockout (KO) mice (Potthoff, et al., Proc Natl Acad Sci USA 106, 10853-10858, 2009), Fgf21-transgenic (Tg) mice (Inagaki, et al., Cell Metab 5, 415-425, 2007), KLB-T and WT littermates were maintained on a C57Bl/6J background. β-Klotho-KO and heterozygous littermates were kept on a mixed C57BL/6J; 129/Sv background (Ding, et al., Cell Metab 16, 387-393, 2012). All mice were housed in a pathogen-free facility and fed a standard chow diet (Harlan Teklad 2916). For fasting refeeding experiments, mice were fasted overnight and then refed for 2 hours with standard chow diet. Acute pancreatitis was induced by administration of seven hourly intraperitoneal injections of 50 μg/kg cerulein (Sigma), whereas mice in the control group were injected with saline. FGF21 in plasma was measured using a mouse FGF21 ELISA kit (Biovendor). Male mice were used for all experiments.
(§4) Mice were injected with vehicle (10 mM Na2HPO4, 2% [w/v] glycerol, pH 7.6) or 1 mg/kg human recombinant FGF21 (Novo Nordisk) subcutaneously twice per day for two consecutive days. Mice were fasted for 6 hours, and pancreatic juice was collected for 15 minutes. The final injection of vehicle or FGF21 was given 1 hour prior to pancreatic juice collection.

[2] = system: Female Swiss Webster mice; experiment: ERCP-induced pancreatitis model, histological grading of pancreas; assay type: in vivo, mouse; details: 1 mg/kg FGF21, 4 subcutaneous injections
Protocol: To evaluate if FGF21 confers a beneficial effect against ERCP-induced pancreatitis, a preclinical study was performed in an established rodent model of ERCP that develops pancreatitis 24 hours after ERCP. Female Swiss Webster mice were treated with either 4 subcutaneous injections of vehicle or 1 mg/kg FGF21 in the following way: 1 injection the day prior to ERCP, 2 injections the day of the ERCP procedure, and 1 injection the day following ERCP. Mice were subjected to the ERCP procedure, which consisted of a high-pressure infusion of a radiocontrast agent through the pancreatic duct.

Fgf21-KO mice [3] = experiment: H&E staining of pancreas, eosinophilic area fraction; assay type: in vivo, mouse; details: 1 mg/kg recombinant FGF21 twice per day for two consecutive days
Protocol: as §4
Mouse pancreas was fixed in 10% neutral buffered formalin overnight and then paraffin embedded, sectioned and hematoxylin and eosin stained. For fresh frozen histology, the pancreas was quickly dissected, snap frozen in cooled isopentane and sectioned at 14-16 μm. The sections were then fixed in 10% neutral buffered formalin for 15 min at 4° C., washed 3 times in 1×PBS and mounted with Vectashield mounting medium with DAPI (Vector Laboratories). Images were acquired with a Zeiss Axioscan Z1 slide scanner at a 20× magnification. Quantification of the eosinophilic area was performed using Image J.

[4] = system: Klb^fl/fl and Klb^Cela1−/− mice; experiment: Pancreatic juice collection: flow rate and amylase levels; assay type: in vivo, mouse; details: 1 mg/kg FGF21 for 2 consecutive days
Protocol: as §4
To explore whether FGF21 also acts directly on pancreatic acinar cells in vivo, we generated an inducible acinar cell-specific β-Klotho (Klb) knockdown mouse model in which Cre recombinase expression was under the control of a modified estrogen receptor and the elastase promoter. Efficient knockdown of Klb expression following tamoxifen administration was confirmed in floxed Klb mice carrying the Cre allele (Klb^Cela1−/−). There was no change in plasma FGF21 concentrations in Klb^Cela1−/− mice under fasted conditions. Similar to the Fgf21 KO mice, the Klb^Cela1−/− mice had increased zymogen granule density and pancreatic digestive enzyme concentrations. To test whether FGF21 acts directly on pancreatic acinar cells to stimulate secretion, Klb^fl/fl and Klb^Cela1−/− mice were treated with either vehicle or FGF21 and pancreatic juice collected for 15 min. […] Thus, the basis for the remaining effect of FGF21 on pancreatic juice flow rate requires further investigation.

Fgf21-KO mice [5] = experiment: Western blot of pancreatic amylase and lipase levels; assay type: in vivo, mouse; details: 1 mg/kg recombinant FGF21 twice per day for two consecutive days
Protocol: as §4
as §1, with “Membranes were then incubated with HRP-conjugated secondary antibodies (Cell Signaling Technology) against the primary antibody's host species for 1 hour.” left out

[6] = system: mouse primary acinar cells; experiment: Cell secretion assay, amylase secretion; assay type: cell-based; details: 1 μg/mL FGF21 for 30 min
Protocol: Primary acinar cells were prepared by modification of a published protocol (Williams, et al., The American journal of physiology 235, 517-524, 1978). Briefly, mice were sacrificed by decapitation followed by dissection and washing of the pancreas in 1×PBS. Pancreas digestion medium (0.75 mg/ml collagenase type XI-S [Sigma], 0.1 mg/ml soybean trypsin inhibitor [Sigma], 1% BSA in DMEM) was injected into the pancreatic parenchyma with a 30 g syringe. Pancreas was then incubated in digestion medium for 20-40 minutes with constant mixing using serological pipets of decreasing diameters. Cells were filtered through a 100 μm strainer and washed 3 times with incubation medium (0.1 mg/ml soybean trypsin inhibitor, 1% BSA in DMEM) via centrifugation at 50×g for 3 minutes per wash. Cells were plated and allowed to recover for 2 hours in incubation medium at 37° C.
Primary acinar and AR42J cells were treated with vehicle, FGF21 (1 μg/ml for both primary acinar cells and AR42J) or CCK (10 pM for primary acinar cells and 100 pM for AR42J cells [Phoenix Pharmaceuticals]) for 30 minutes at 37° C. Amylase levels in both the cell medium and cells were analyzed using an Amylase Assay Kit (Abcam).

secretin = experiment: Blood concentration of secretin; assay type: in vivo, mouse; details: mice treated with FGF21
[7] = system: Fgf21-transgenic (Tg) mice; experiment: Cerulein-induced pancreatitis (CIP), ER stress markers; assay type: in vivo, mouse; details: chronic FGF21 via liver-specific transgene, supraphysiologic circulating levels; cerulein 50 μg/kg, seven hourly i.p. injections
Description: as §3, with “experiments. […]” for “experiments.”
Pancreas was homogenized using Fastprep-24 lysing matrix bead tubes (MP Biomedicals) in 1×RIPA buffer (Cell Signaling Technology) supplemented with a cocktail of protease and phosphatase inhibitors (Roche). Protein lysate concentrations were measured using the DC Protein Assay (Biorad). […] Membranes were developed using the Super Signal West Chemiluminescence Kit (Thermo) and signal was detected with an ImageQuant LAS4000 luminescent imager (General Electric). Quantification was done using Image J.

PLCγ1 = experiment: Western blot of pancreatic phospho-PLCγ; assay type: in vivo, mouse; details: WT mice, 1 mg/kg FGF21 for 15 min
Protocol: as §1, §2

[8] = Klb^Cela1−/− mice, juice collected for 15 min

| Molecule | block of CCK-mediated calcium release (AR42J cells; 100 pM CCK) | block of calcium release elicited by FGF21 (AR42J cells) | ERK1/2 phosphorylation in pancreas (FIG. 4F) (ERK1/2) | ERK1/2 phosphorylation in pancreas (FIG. 3B) (ERK1/2) | 3H-phenylalanine incorporation into pancreatic protein (pancreatic protein synthesis) [1] | intracellular calcium release (ΔF/F0) (AR42J cells) | phosphorylation of eIF4E-BP1 in pancreas (eIF4E-BP1) | other results |
| --- | --- | --- | --- | --- | --- | --- | --- | --- |
| NCCOB(c1ccccc1)c1ccccc1 [2-APB] | blocked | blocked |  |  |  |  |  |  |
| CN1C(=O)[C@@H](NC(=O)c2cc3ccccc3[nH]2)N=C(c2ccccc2)c2ccccc21 [L-364,718] | blocked | not |  |  |  |  |  |  |
| CCN(CC)CCCCNc1ncc2cc(-c3cc(OC)cc(OC)c3)c(NC(=O)NC(C)(C)C)nc2n1 [PD173074] | not | blocked |  |  |  |  |  |  |
| COc1ccc2c(c1)CC[C@@H]1[C@@H]2CC[C@]2(C)[C@@H](NCCCCCCN3C(=O)C=CC3=O)CC[C@@H]12 [U73122] | blocked | blocked |  |  |  |  |  |  |
| cholecystokinin [CCK] |  |  | induced | induced | significantly increased | triggered intracellular calcium release | increased | phosphorylation of PLCβ in pancreas (PLCβ3): induced; time to peak calcium levels after treatment (AR42J cells; 100 pM CCK): ≤ 30 s; change of FGF21 in the blood (ad-lib fed WT mice): without any change; increase in the concentration of FGF21 in the pancreatic juice (ad-lib fed WT mice): 3 fold |
| B1 |  |  | induced | induced | no significant effect | triggered intracellular calcium release | no effect | edema after ERCP, histological grading [2]: decreased; inflammation after ERCP, histological grading [2]: decreased; pancreatic eosinophilic area fraction (Fgf21-KO mice [3]): decreased the pancreatic eosinophilic area fraction in Fgf21-KO mice to wild type (WT) levels; effect on digestive enzyme secretion (amylase in pancreatic juice) in Klb^Cela1−/− mice [4, 8]: absent; effect on pancreatic juice flow rate in Klb^Cela1−/− mice [4, 8]: significantly reduced but not eliminated; digestive enzyme secretion into pancreatic juice ([4]; control mice): stimulate; pancreatic juice flow ([4]; control mice): stimulate; time to peak calcium levels after treatment (AR42J cells; 1 μg/ml FGF21): 60 to 120 s; pancreatic digestive enzyme levels (amylase, lipase), immunoblot (Fgf21-KO mice [5]): reduction; amylase (digestive enzyme) secretion from acinar cells [6]: Induce Pancreatic Digestive Enzyme Secretion; blood concentrations of secretin (secretin): did not increase; ER stress parameters (p-eIF2α, Atf4, Chop, Bip mRNA) in response to CIP [7]: suppressed; phosphorylation of PLCγ in pancreas (PLCγ1): induced |
